This is an account of results in the RNAGym collection of RNA variant scans (doi:10.7554/elife.80360).

The chains are these.
B1: Hairpin Ribozyme (parent)
chain: GUCCUCUUUCACGUGCGCGUGAAAGAGAGAAGUGAACCAGAGAAACACACGUUGUGGUAUAUUACCUGGUA

Variants of B1 are the subject of the data set. The data set can be described thus: self-cleavage, relative activity (ratio to wild type); higher = more cleavage; co-transcriptional.
As for A47G G51U, the self-cleavage is 0.15.
As for A47C U67A, the figure is 0.128; as for A49U U70G, 0.39.
Consider C48G U58C, for which the self-cleavage came to 0.143.
As for C46G U55G, the figure is 0.107; as for A49C G57C, 0.121.
For C50G C66A, the self-cleavage was 0.193.
As for C48A G54A, the figure is 0.169.
As for C48U U63A, the figure is 0.173; as for C48G A59C, 0.119; as for C50U U62G, 0.158.
As for C50U U62C, the figure is 0.0808.
For the variant C46G U67C, the self-cleavage was found to be 0.173.
As for C46G U67G, the figure is 0.198; as for A49C G51A, 0.0757.
As for A49C U58G, the figure is 0.286; as for A49C U58C, 0.316.
C50G U63A: the self-cleavage was 0.177.
As for C50G U63C, the figure is 0.114.
As for C46U U62C, the figure is 0.213.
As for C46U U62G, the figure is 0.237.
For the variant A49G C50A, the self-cleavage was determined as 0.249.
Consider A49G C50U, for which the self-cleavage turned out to be 0.129.
For A47C A61U, the self-cleavage was found to be 0.137.
As for A49U G54C, the self-cleavage is 0.28.
As for A47C G69U, the figure is 0.0997; as for A47C G69A, 0.151.
As for A49U C65G, the figure is 0.171.
As for A47C G56U, the figure is 0.149.
Turning to C48U G69C, the self-cleavage was determined as 0.124.
On to C48U G69U, for which the self-cleavage came to 0.182.
As for A49G G57A, the figure is 0.111; as for A49G G57C, 0.0948.
As for C50U C66U, the figure is 0.159; as for A49U U60C, 0.331.
As for A49G G51A, the figure is 0.651; as for A49G G51C, 0.495; as for C50G C65G, 0.161.
Turning to A47U G54U, the self-cleavage came to 0.145.
Take A47U G54A: the self-cleavage came to 0.159.
As for A47U G54C, the figure is 0.144; as for A47C C65G, 0.203.
As for C50A G68A, the figure is 0.143; as for C50A G68U, 0.15.
On to C50A G68C, for which the self-cleavage came to 0.178.
As for A49U A59U, the figure is 0.178; as for A49U A59C, 0.179; as for C48A U67G, 0.122.
As for C50A A71G, the figure is 0.253; as for A47U G69U, 0.138.
In the case of A47U G69A, the self-cleavage worked out at 0.107.
As for A47U G51C, the figure is 0.31.
As for A47U G51U, the figure is 0.166; as for A49C G56A, 0.17; as for A47C C48A, 0.164.
As for C50G U53C, the figure is 0.327; as for C48U G57C, 0.163; as for C48U G57U, 0.204.
In the case of C48A U58G, the self-cleavage amounted to 0.165.
As for C48A U58A, the figure is 0.0644; as for A47G C50A, 0.172.
In the case of A47G C50G, the self-cleavage is 0.105.
As for C50U A61G, the figure is 0.199; as for C46U A64C, 0.0758.
As for C50U G56C, the figure is 0.19.
As for C46U U63C, the figure is 0.106; as for C50U G54C, 0.534.
On to C50U U67C, for which the self-cleavage was found to be 0.157.
As to A47G A59G, the self-cleavage came to 0.196.
Consider C48A G57A, for which the self-cleavage worked out at 0.121.
As for A47G A64G, the figure is 0.0949; as for A47G A64C, 0.0744; as for A49U G68U, 0.128.
As for A49U G68C, the figure is 0.14; as for C48A G69C, 0.135.
As for A49G A61C, the figure is 0.0946; as for C50U C65U, 0.199; as for C48G U53A, 0.101.
C48G U53C: the self-cleavage was 0.206.
In the case of C46G U60G, the self-cleavage was 0.151.
As for C46G U60A, the figure is 0.091; as for G51A G57A, 0.142.
As for A47C U58C, the figure is 0.318; as for A47U G68U, 0.224.
On to A47U G56U, for which the self-cleavage was determined as 0.148.
As for C46U U53A, the figure is 0.215.
As for C46U U53G, the figure is 0.216; as for C48G U67A, 0.259; as for C48G U67C, 0.117.
A49G A64G: the self-cleavage was 0.155.
As for A49G A64C, the figure is 0.248; as for C46G C65A, 0.174.
As to C50G U62A, the self-cleavage worked out at 0.213.
A49U A71G: the self-cleavage was determined as 0.221.
Take A49U A71U: the self-cleavage came to 0.146.
As for A49C U62A, the figure is 0.15; as for A49U G57A, 0.192; as for A49U G57U, 0.228.
As for C48U G56A, the figure is 0.222.
Consider A49C U63G, for which the self-cleavage was found to be 0.153.
In the case of A49C U63A, the self-cleavage came out at 0.0427.
As for A47C G51C, the figure is 0.377; as for C50A G51U, 0.399; as for C48G A64C, 0.242.
As to A47G U55A, the self-cleavage worked out at 0.184.
Turning to A47G U55G, the self-cleavage was 0.139.
As for A49G C65U, the figure is 0.107; as for A49G C65G, 0.184.
For A49C U55C, the self-cleavage was determined as 0.273.
As for A49C U55G, the figure is 0.343; as for A47G C66G, 0.128.
For the variant A49U A61C, the self-cleavage turned out to be 0.0823.
As for A47U U60G, the figure is 0.0964; as for A47U U60C, 0.0859.
As for A47U U60A, the figure is 0.0931.
Regarding A47G A49U, the self-cleavage stood at 0.0814.
As for C48G C66G, the figure is 0.105; as for C50A C66U, 0.15.
For the variant C50A C66G, the self-cleavage was 0.217.
A47C U60C: the self-cleavage was determined as 0.418.
Take C50A G54U: the self-cleavage worked out at 0.97.
As for A47U U62A, the self-cleavage was found to be 0.114.
As for A47G A61G, the figure is 0.219.
In the case of C50G A64G, the self-cleavage turned out to be 0.164.
A47C U53G: the self-cleavage was 0.174.
For the variant A47C U53C, the self-cleavage was 0.192.
As for G51A G56C, the figure is 0.148.
As for C48U C65A, the figure is 0.086; as for C48U C65G, 0.0909; as for A49G U55G, 0.498.
Take A49G U55C: the self-cleavage was determined as 1.17.
As for C48A A64G, the figure is 0.127.
For C46G U62A, the self-cleavage is 0.148.
As for A47G G69C, the figure is 0.112.
As for A47G G69U, the figure is 0.118; as for A49U U63C, 0.172.
As for A47G C65G, the figure is 0.112; as for A47G U63A, 0.211; as for A47G U63G, 0.0332.
Turning to A49C C65G, the self-cleavage amounted to 0.168.
As for A49C C65A, the self-cleavage stood at 0.225.
In the case of A49G G56A, the self-cleavage was 0.204.
Consider C48G U63C, for which the self-cleavage came out at 0.0816.
As for A47C A71C, the self-cleavage turned out to be 0.72.
As for A47C A49C, the figure is 0.204.
A47C A49G: the self-cleavage was found to be 0.308.
C48A U62G: the self-cleavage worked out at 0.0864.
As for C50G U70G, the figure is 0.314; as for A49G U67A, 0.208; as for C50U U60C, 0.729.
As for C50U U60G, the figure is 0.205; as for C46U G68U, 0.119; as for C46U G68A, 0.0828.
For the variant C46U, the self-cleavage stood at 0.149.
Turning to A49C G54C, the self-cleavage came out at 0.187.
Regarding C46G C50U, the self-cleavage came out at 0.185.
As for C48A C65G, the figure is 0.132; as for C48A C65U, 0.189; as for C48U U52G, 0.311.
As for C48U U52A, the figure is 0.138.
As for A47U C65G, the figure is 0.139.
A47U C65A: the self-cleavage is 0.0949.
As for C48U U53C, the figure is 0.233; as for C50G G68C, 0.0881; as for A49C A64U, 0.178.
C50A U63C: the self-cleavage was 0.198.
On to A47C U70G, for which the self-cleavage was 0.272.
